Measured values: patent publication US20020127543A1, “Methods and compositions utilizing hepatitis C virus molecules” (priority 1999, published 2002)
Read-outs that look alike come from different tables or passages of the source.

Tests used:
[1] = system: Dabsyl peptide with KKKKK core (synthetic); conditions: FRET quenching
[2] = system: Dabsyl peptide with QQQQQ core (synthetic); conditions: FRET quenching, R2 N/A
[3] = system: Dabsyl peptide with KKKQR core (synthetic); conditions: FRET quenching
[4] = system: Dabsyl peptide with KKQKR core (synthetic); conditions: FRET quenching
[5] = system: Dabsyl peptide with KKRQR core (synthetic); conditions: FRET quenching
[6] = system: Dabsyl peptide with KKQRR core (synthetic); conditions: FRET quenching
[7] = system: Dabsyl peptide with RRRRR core (synthetic); conditions: FRET quenching, 50 mM Tris pH 7.4, 110 mM KCl
[8] = system: eIF3 (eukaryotic initiation factor 3 complex); experiment: EMSA
19mer control RNA = experiment: FRET titration of fluorescein-labelled control RNA with Dabsyl-labelled peptides; assay type: binding
Excerpt: (§1) Oligoribonucleotides with a fluorescein attached to the 5′ end of the molecule (shown in FIG. 6a) were synthesised using conventional oligoribonucleotide techniques. A 19 mer (FIG. 6b) was used for control purposes
(§2) Fluoresein-labeled RNA was titrated with Dabsyl-labelled peptides. The donor (fluorescein) fluoresence was excited at 490 nm. In the presence of peptide, binding leads to a quenching of fluorescence by the non-fluorescent acceptor dye Dabsyl. The quenching curves allow the determination of binding affinities. Fluorescein-labelled RNA containing the mIRES was titrated with various peptides.
(§3) FIG. 7 illustrates binding curves for RNA containing the mIRES titrated with various peptides. Experimental conditions: Fam-labelled RNA (10 nM) was titrated with Dabsyl-labelled peptide in 50 mM Tris/Cl, pH7.4, 110 mM KCl, 5ug/ml BSA, 0.01% Triton X-100, 1%DMSO. Fluorescence (excitation 490 nm/emission at 535 nm) was determined in 96-well plates using a Fluorescence plate reader. The assay volume was 100 μl.
(§4) Dissociation constants were determined by fitting a binding isotherm (1-site-binding) to the titration data using the equation
(§5) Y=((Fmax−Fmin)−((Fmax−Fmin)*c/(Kd+c)))+Fmin

HCV mIRES RNA = experiment: FRET titration of fluorescein-labelled RNA with Dabsyl-labelled peptides; assay type: binding; conditions: HCV loopIII RNA 10 nM, pH7.4, 110 mM KCl
Excerpt: as §1, §2, §3, §4, §5

IIIB-Dabcyl RNA = experiment: Inhibition of paromomycin-TAMRA binding to IIIB-Dabcyl RNA (FRET); parameters: species or system HCV
Description: Measurements were made in a 2 mL cuvette. Increasing amounts of IIIB-Dabcyl RNA (corresponding to the amounts shown in the figure) were added to a solution of 10 nM paromomycin-TAMRA in the presence of 50 mM Tris.HCl pH7.5, 80 mM KCl. For each titration point emission spectra were acquired using a fixed wavelength of 552 nm with the excitation slits set to 5 nm and the emission slits set to 10 nm. Emission spectra were acquired over the range 570-600 nm. Two binding curves are presented, the first in the absence of a test molecule (FIG. 8a) and the second in the presence of 10 μM neomycin (FIG. 8b).

[9] = relative to DIII, no complex formed

19-mer control RNA (FIG. 6b)
Kd ([1]; R2 N/A): > 0.5 µM | Kd [2]: > 0.5 µM | Kd ([3]; R2 N/A): > 0.5 µM | Kd ([4]; R2 N/A): > 0.5 µM | Kd ([5]; R2 N/A): > 0.5 µM | Kd ([6]; R2 N/A): > 0.5 µM | Kd [7]: 0.194 µM

HCV IRES Domain II (DII)
binding signal [8, 9]: 0.5%

HCV IRES Domain III (DIII)
binding signal ([8]; reference, 60 mM KCl, 3 mM MgCl2, 200 nM tRNA, on ice, relative affinity by unlabelled RNA competition): 100%

HCV mIRES RNA (loop III, FIG. 6a)
Kd ([1]; 50 mM Tris pH 7.4, 110 mM KCl): 0.049 µM | Kd ([2]; 50 mM Tris pH 7.4, 110 mM KCl): > 0.5 µM | Kd ([3]; 50 mM Tris pH 7.4, 110 mM KCl): 0.09 µM | Kd ([4]; 50 mM Tris pH 7.4, 110 mM KCl): > 0.5 µM | Kd ([5]; 50 mM Tris pH 7.4, 110 mM KCl): 0.104 µM | Kd ([6]; 50 mM Tris pH 7.4, 110 mM KCl): 0.041 µM | Kd ([7]; ±10, 10 nM RNA): 0.03 µM

KKKKK
Kd (19mer control RNA): > 0.5 µM | Kd (HCV mIRES RNA): 0.049 µM

KKKQR
Kd (19mer control RNA): > 0.5 µM | Kd (HCV mIRES RNA): 0.09 µM

KKQKR
Kd (19mer control RNA): > 0.5 µM | Kd (HCV mIRES RNA): > 0.5 µM

KKQRR
Kd (19mer control RNA): > 0.5 µM | Kd (HCV mIRES RNA): 0.041 µM

KKRQR
Kd (19mer control RNA): > 0.5 µM | Kd (HCV mIRES RNA): 0.104 µM

Neomycin
Ki (IIIB-Dabcyl RNA; 10 nM paromomycin-TAMRA, 10 μM neomycin): 0.52 µM | Inhibition of paromomycin-TAMRA binding to IIIB-Dabcyl RNA (in words) (IIIB-Dabcyl RNA; 10 uM): inhibits paromomycin-TAMRA binding to IIIB-Dabcyl RNA

QQQQQ
Kd (19mer control RNA): > 0.5 µM | Kd (HCV mIRES RNA): > 0.5 µM

RRRRR
Kd (19mer control RNA): 0.194 µM | Kd (HCV mIRES RNA): 0.03 ± 0.01 µM

tRNA
binding signal [8, 9]: 0.1%
